Sequences and labels used below:
B1: PRAMEX1 (Prame like, X-linked 1) (natural protein, mouse (endogenous in testis), UniProt F7ADI6 1-462, looked up)
chain: MDERDPSSLLDLAIQSLLSNELVAIHSLGEIPRELFVPLFSAAFTGGYRKILTSMVKIWPFTCLHIGTLSVQEPQRELLKAMVESLQFLPAQDCSSGGPKLRILDVRQGVDCKTTCPDFGARSPTCFHGCTHSVHSILKLESQYSIVDLKPESQSAIQPMELLVDLSLDGTLREREFFALLLNKVQQSSGSLHLCCRDLQIDRFSYAKNALKFLDLTCIQNLTVDQASLSEVTTLLARMIYLDSLSLSKITYRSLHGKVFRVFLNYLGRMNCLKELNLSSFSLTDHLDSLLRALPPNLDFLYLPFCEISYRDLKFLSQSAQATHLKLLNLSNNPMYWDDCGPFQTLLQKLSDTLQHLAINHCHLTDAILSAILPALSKCSHLRVISFVSNPISMPMLLKILHYLTPLMELKYVIYPIPIHCYEQWQFHGRLDRQKLTDVQAQLKAMLQAAKRSDMNWITYSQ
notes: PRAMEX1 (Prame like, X-linked 1), mouse, endogenous in testis; band of about 56 kDa; Endogenous protein of C57BL/6 mouse testis; no recombinant construct; source: endogenous, mouse P7 testis protein extract
B2: Retinoic acid receptor alpha (RARα) (natural protein, mouse (endogenous in testis), UniProt P11416 1-462, looked up)
chain: MASNSSSCPTPGGGHLNGYPVPPYAFFFPPMLGGLSPPGALTSLQHQLPVSGYSTPSPATIETQSSSSEEIVPSPPSPPPLPRIYKPCFVCQDKSSGYHYGVSACEGCKGFFRRSIQKNMVYTCHRDKNCIINKVTRNRCQYCRLQKCFDVGMSKESVRNDRNKKKKEAPKPECSESYTLTPEVGELIEKVRKAHQETFPALCQLGKYTTNNSSEQRVSLDIDLWDKFSELSTKCIIKTVEFAKQLPGFTTLTIADQITLLKAACLDILILRICTRYTPEQDTMTFSDGLTLNRTQMHNAGFGPLTDLVFAFANQLLPLEMDDAETGLLSAICLICGDRQDLEQPDKVDMLQEPLLEALKVYVRKRRPSRPHMFPKMLMKITDLRSISAKGAERVITLKMEIPGSMPPLIQEMLENSEGLDTLSGQSGGGTRDGGGLAPPPGSCSPSLSPSSHRSSPATQSP
notes: Retinoic acid receptor alpha, mouse, endogenous in testis; band of 52 kDa; Endogenous protein of C57BL/6 mouse testis; source: endogenous, mouse P7 testis protein extract

Assay [1] deals with B2. Kind of assay: co-IP; anti-PRAMEX1 or anti-RARα antibody immobilised on protein A/G magnetic beads (Pierce Crosslink Magnetic IP/co-IP Kit); P7 testis proteins of WT, Pramex1 sKO and Pramel1 sKO mice, overnight at 4 °C; Western blot, band intensity relative to input (set as 1), n = 3. The following applies: partners not purified. In general terms: In western blotting, separated proteins are transferred to a membrane and probed.

Assay [2] has as its target B1. Described as above. As to conditions: partners not purified.

Turning to B1, in assay [1], the “band intensity in the RARα co-IP relative to input, Pramel1 sKO testis” value stood at 3.32 fold and the “band intensity in the RARα co-IP relative to input, WT testis” value is 1.3 fold.
For B2, in assay [2], the “band intensity in the PRAMEX1 precipitation relative to input, Pramel1 sKO testis” value is 2.48 fold and the “band intensity in the PRAMEX1 precipitation relative to input, WT testis” value came out at 1.5 fold.

(Values after publication PMC10893636, “Synergistic enhancement of the mouse Pramex1 and Pramel1 in repressing retinoic acid (RA) signaling during gametogenesis” (Cell & Bioscience, 2024).)
